Results taken from patent US20040142379A1 (CARLSBERG RESEARCH LABORATORY, published 2004).
Positions of bridges follow the written chain, without caps; N, C: chain ends. Non-standard residues stand in square brackets, D forms with d. Primed or numbered codes have the meaning given here. No end group written: not given here. T(Sa)″ = not defined here

Assays:
Experiment in all cases: on-bead capture from E. coli membrane protein extract; tryptic digest, MALDI peptide mass fingerprint
Biotin synthetase = biological target: T1, Biotin synthetase (Escherichia coli, UniProt P12996 1-346)
T1 sequence (looked up): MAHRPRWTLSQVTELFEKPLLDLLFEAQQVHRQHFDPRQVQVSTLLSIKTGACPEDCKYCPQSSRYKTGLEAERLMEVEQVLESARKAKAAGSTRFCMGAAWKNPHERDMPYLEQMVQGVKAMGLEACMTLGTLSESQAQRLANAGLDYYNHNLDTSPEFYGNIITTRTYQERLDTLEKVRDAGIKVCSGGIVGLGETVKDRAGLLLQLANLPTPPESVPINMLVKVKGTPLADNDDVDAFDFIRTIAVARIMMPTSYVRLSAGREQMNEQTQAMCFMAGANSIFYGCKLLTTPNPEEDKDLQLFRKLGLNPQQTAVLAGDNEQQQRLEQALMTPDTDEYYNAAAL

[1] = biological target: UDP-glucose dehydrogenase (Escherichia coli, UniProt P76373 1-388)
[2] = biological target: T2, glutamine tRNA synthetase (Escherichia coli, UniProt P00962 2-554)
T2 sequence (looked up): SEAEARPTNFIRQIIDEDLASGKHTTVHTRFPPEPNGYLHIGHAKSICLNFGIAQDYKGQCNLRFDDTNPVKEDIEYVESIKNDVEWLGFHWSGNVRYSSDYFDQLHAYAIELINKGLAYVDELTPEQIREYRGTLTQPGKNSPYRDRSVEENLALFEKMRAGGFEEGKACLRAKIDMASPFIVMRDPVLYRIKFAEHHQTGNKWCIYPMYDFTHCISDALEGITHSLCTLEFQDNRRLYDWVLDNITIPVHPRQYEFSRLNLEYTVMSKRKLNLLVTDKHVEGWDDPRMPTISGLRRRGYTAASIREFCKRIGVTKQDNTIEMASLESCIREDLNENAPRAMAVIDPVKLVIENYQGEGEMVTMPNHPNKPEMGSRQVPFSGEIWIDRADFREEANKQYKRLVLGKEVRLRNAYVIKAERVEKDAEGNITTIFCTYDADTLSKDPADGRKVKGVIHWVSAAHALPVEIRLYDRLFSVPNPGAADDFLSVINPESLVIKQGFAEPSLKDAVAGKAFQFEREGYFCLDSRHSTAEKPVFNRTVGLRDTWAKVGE

[3] = biological target: T3, Mannose-1-phosphate guanyl transferase (Escherichia coli, UniProt P24174 1-478)
T3 sequence (looked up): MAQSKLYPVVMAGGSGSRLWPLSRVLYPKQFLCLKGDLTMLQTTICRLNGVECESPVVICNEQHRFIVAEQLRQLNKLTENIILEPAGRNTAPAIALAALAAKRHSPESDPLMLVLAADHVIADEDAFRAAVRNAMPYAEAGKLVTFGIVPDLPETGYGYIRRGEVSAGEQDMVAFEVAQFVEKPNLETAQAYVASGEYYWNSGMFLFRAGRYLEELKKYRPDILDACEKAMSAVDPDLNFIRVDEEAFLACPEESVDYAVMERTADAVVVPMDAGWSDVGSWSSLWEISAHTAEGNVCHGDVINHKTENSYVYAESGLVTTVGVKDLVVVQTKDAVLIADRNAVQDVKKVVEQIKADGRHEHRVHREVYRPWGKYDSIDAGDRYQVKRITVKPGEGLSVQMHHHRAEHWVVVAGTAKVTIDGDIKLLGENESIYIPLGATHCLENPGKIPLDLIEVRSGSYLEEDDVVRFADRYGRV

[4] = biological target: isopropyl malate dehydrogenase (Escherichia coli, UniProt P30125 2-363)
Chain of isopropyl malate dehydrogenase (P30125 2-363 limits assumed): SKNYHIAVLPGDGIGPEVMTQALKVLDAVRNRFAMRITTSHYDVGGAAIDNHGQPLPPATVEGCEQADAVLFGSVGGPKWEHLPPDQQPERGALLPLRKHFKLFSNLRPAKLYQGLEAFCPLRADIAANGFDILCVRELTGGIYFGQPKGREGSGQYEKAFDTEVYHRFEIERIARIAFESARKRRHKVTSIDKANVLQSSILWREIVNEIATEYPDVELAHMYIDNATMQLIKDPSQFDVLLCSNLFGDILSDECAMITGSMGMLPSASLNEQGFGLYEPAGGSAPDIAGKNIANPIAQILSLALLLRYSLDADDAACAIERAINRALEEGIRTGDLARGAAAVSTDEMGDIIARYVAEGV

[5] = biological target: T4, NAD-dependent 7-alpha-hydroxysteriod dehydrogenase (Escherichia coli, UniProt P0AET8 1-255)
T4 sequence (looked up): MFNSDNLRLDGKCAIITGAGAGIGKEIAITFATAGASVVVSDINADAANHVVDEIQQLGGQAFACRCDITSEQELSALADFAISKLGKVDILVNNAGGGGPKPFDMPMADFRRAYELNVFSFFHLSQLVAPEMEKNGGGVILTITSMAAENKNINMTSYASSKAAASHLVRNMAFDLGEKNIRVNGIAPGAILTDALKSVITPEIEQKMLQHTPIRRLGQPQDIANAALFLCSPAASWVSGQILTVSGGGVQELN

citrate synthetase = biological target: T5, citrate synthetase (Escherichia coli, UniProt P0ABH7 1-427)
T5 sequence (looked up): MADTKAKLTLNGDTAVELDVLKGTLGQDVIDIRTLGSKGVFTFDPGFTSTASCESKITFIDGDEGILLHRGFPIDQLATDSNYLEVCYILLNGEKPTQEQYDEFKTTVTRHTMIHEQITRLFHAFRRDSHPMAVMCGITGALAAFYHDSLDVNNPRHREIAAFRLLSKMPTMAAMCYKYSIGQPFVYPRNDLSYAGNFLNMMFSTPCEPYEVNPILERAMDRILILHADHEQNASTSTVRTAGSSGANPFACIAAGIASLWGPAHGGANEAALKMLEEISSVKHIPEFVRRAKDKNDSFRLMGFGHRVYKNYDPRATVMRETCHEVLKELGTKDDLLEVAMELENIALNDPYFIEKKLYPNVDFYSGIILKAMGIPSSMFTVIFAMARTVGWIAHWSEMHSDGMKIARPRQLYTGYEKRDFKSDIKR

B1: T(Sa)-Y-S-M-P (peptide)
peptide: [T(Sa)″]YSMP
modifications: lactam N-1; reading uncertain; also: printed as T(Sa)-Y-S-M-P
notes: Library 2 ligand, resynthesised on PEGA4000 resin bead
**Q.** Does B1 bind (Biotin synthetase)?
**A.** binds

**Q.** Does B1 bind [1]?
**A.** binds

B2: T(Sa)-G-V-F-L (peptide)
peptide: [T(Sa)″]GVFL
modifications: lactam N-1; reading uncertain; also: printed as T(Sa)-G-V-F-L
notes: as for B1
**Q.** Does B2 bind [2]?
**A.** binds

B3: T(Sa)-H-W-H-I (peptide)
peptide: [T(Sa)″]HWHI
modifications: lactam N-1; reading uncertain; also: printed as T(Sa)-H-W-H-I
notes: as for B1
**Q.** Does B3 bind [3]?
**A.** binds

**Q.** Does B3 bind [4]?
**A.** binds

B4: T(Sa)-L-S-W-W (peptide)
peptide: [T(Sa)″]LSWW
modifications: lactam N-1; reading uncertain; also: printed as T(Sa)-L-S-W-W
notes: as for B1
**Q.** Does B4 bind [5]?
**A.** binds

**Q.** Does B4 bind (citrate synthetase)?
**A.** binds
